Data on one molecule can be found in US7122633 (Pfizer, dated 2006).

This test deals with T1, NKSF larger subunit, 40 kD (human, UniProt P29460 23-328).
T1 construct: also called 40 kD subunit; NKSF heavy chain
T1 sequence: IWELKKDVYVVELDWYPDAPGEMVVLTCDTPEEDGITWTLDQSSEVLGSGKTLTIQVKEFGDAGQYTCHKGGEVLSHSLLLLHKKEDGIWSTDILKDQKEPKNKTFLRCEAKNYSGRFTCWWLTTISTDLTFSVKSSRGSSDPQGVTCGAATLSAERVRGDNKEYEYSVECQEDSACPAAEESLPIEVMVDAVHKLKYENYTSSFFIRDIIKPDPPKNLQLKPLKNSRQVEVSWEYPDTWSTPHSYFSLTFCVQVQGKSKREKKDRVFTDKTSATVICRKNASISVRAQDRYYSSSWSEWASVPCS
Put plainly: SDS-PAGE of the iodinated 70 kD species, non-reduced against reduced with β-mercaptoethanol. The protocol:
SDS-PAGE was performed according to the method of Laemmli [Laemmli, U. K., *Nature*, 227:680–685 (1970)] on 10% acrylamide slab gels (0.75 mm thickness). After electrophoresis the gels were either stained by the silver-nitrate method using a silver staining reagents [BioRad] or cut into 2 mm slices and eluted in 0.5 ml RPMI medium for 4 hours at 24° C. and assayed for NKSF activity. Apparent molecular weight was determined with protein standards, […] (94 kD), bovine serum albumin (67 kD), ovalbumin (43 kD), carbonic anhydrase (30 kD), soybean trypsin inhibitor (20 kD) and lactalbumin (14.4 kD).
The 70 kD species was eluted from the gel, iodinated using chloramine T [Sigma, St. Louis, Mo.] and rerun on a second SDS gel after boiling for two minutes in the presence of the reducing agent, β-mercaptoethanol (10%). […] Alternatively, NKSF may be a dimer formed by multiples of the larger or smaller subunits. The reduction of the native 70 kD NKSF appeared to destroy all of its ability to induce peripheral blood lymphocyte production of gamma interferon.

B1: NKSF smaller subunit, 30-35 kD (other)
chain: RNLPVATPDPGMFPCLHHSQNLLRAVSNMLQKARQTLEFYPCTSEEIDHEDITKDKTSTVEACLPLELTKNESCLNSRETSFITNGSCLASRKTSFMMALCLSSIYEDLKMYQVEFKTMNAKLLMDPKRQIFLDQNMLAVIDELMQALNFNSETVPQKSSLEEPDFYKTKIKLCILLHAFRIRAVTIDRVMSYLNAS
notes: also called 30 kD subunit; 30 kD (smaller version)
Regarding B1, the binding result is given as “binds”.
